According to patent US6953661 (WESTMEAD HOSPITAL, dated 2005):

Biological target: T1, His-KHCstalk (human uKHC amino acid residues 555-772, tagged at the N-terminus with an oligohistidine … (human, UniProt P33176 555-772))
T1 construct: range 555-772; also the antigen used to raise the chicken anti-uKHC; also called HisKHC555-772; His-KHC fragment; not shown: N-terminal oligohistidine (His) tag
T1 sequence (looked up): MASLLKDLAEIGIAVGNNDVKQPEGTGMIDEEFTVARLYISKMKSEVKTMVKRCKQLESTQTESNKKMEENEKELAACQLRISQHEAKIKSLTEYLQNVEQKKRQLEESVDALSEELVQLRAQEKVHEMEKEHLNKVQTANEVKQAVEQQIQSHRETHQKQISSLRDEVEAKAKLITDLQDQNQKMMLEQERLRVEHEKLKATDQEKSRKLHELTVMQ
Test: pull-down on nickel-activated beads, immunoblot

B1: untagged US11 (recombinant HSV1 US11 with five additional amino acids MGRLE at the N-terminus, expressed in Escherichia coli) (other)
chain: MGRLEMSQTQPPAPVGPGDPDVYLKGVPSAGMHPRGVHAPRGHPRMISGPPQRGDNDQAAGQCGDSGLLRVGADTTISKPSEAVRPPTIPRTPRVPREPRVPRPPREPREPRVPRAPRDPRVPRDPRDPRQPRSPREPRSPREPRSPREPRTPRTPREPRTARGSV
notes: also called untagged US11 construct
B1: no binding.
